{"source": "patent US20210388087A1", "about": "(Chugai, published 2021)", "binders": {"B1": {"name": "H183/L072 VH A57P (antibody, name in Kabat numbering, V domains shown)", "VH": "QVQLVESGGGLVQPGRSLRLSCAASGFTFSNAWMHWVRQAPGKGLEWVAQIKDKGNAYAPYYAPSVKGRFTISRDDSKNSIYLQMNSLKTEDTAVYYCHYVHYASASTVLPAFGVDAWGQGTTVTVSS", "VL": "DIVMTQSPLSLPVTPGEPASISCQASQELVHMNRNTYLHWYQQKPGQAPRLLIYKVSNRFPGVPDRFSGSGSGTDFTLKISRVEAEDVGVYYCAQGTSVPFTFGQGTKLEIK"}, "B2": {"name": "H183/L072 VH A57Q (antibody, name in Kabat numbering, V domains shown)", "VH": "B1 VH with P60Q", "VL": "B1 VL"}, "B3": {"name": "H183/L072 VH A57R (antibody, name in Kabat numbering, V domains shown)", "VH": "B1 VH with P60R", "VL": "B1 VL"}, "B4": {"name": "H183/L072 VH A57S (antibody, name in Kabat numbering, V domains shown)", "VH": "B1 VH with P60S", "VL": "B1 VL"}, "B5": {"name": "H183/L072 VH A57T (antibody, name in Kabat numbering, V domains shown)", "VH": "B1 VH with P60T", "VL": "B1 VL"}, "B6": {"name": "H183/L072 VH A57V (antibody, name in Kabat numbering, V domains shown)", "VH": "B1 VH with P60V", "VL": "B1 VL"}, "B7": {"name": "H183/L072 VH A57W (antibody, name in Kabat numbering, V domains shown)", "VH": "B1 VH with P60W", "VL": "B1 VL"}, "B8": {"name": "H183/L072 VH A57Y (antibody, name in Kabat numbering, V domains shown)", "VH": "B1 VH with P60Y", "VL": "B1 VL"}, "B9": {"name": "H183/L072 VH A60D (antibody, name in Kabat numbering, V domains shown)", "VH": "B1 VH with P60A, A63D", "VL": "B1 VL"}, "B10": {"name": "H183/L072 VH A60E (antibody, name in Kabat numbering, V domains shown)", "VH": "B1 VH with P60A, A63E", "VL": "B1 VL"}, "B11": {"name": "H183/L072 VH A60F (antibody, name in Kabat numbering, V domains shown)", "VH": "B1 VH with P60A, A63F", "VL": "B1 VL"}, "B12": {"name": "H183/L072 VH A60G (antibody, name in Kabat numbering, V domains shown)", "VH": "B1 VH with P60A, A63G", "VL": "B1 VL"}, "B13": {"name": "H183/L072 VH A60H (antibody, name in Kabat numbering, V domains shown)", "VH": "B1 VH with P60A, A63H", "VL": "B1 VL"}, "B14": {"name": "H183/L072 VH A60I (antibody, name in Kabat numbering, V domains shown)", "VH": "B1 VH with P60A, A63I", "VL": "B1 VL"}, "B15": {"name": "H183/L072 VH A60K (antibody, name in Kabat numbering, V domains shown)", "VH": "B1 VH with P60A, A63K", "VL": "B1 VL"}, "B16": {"name": "H183/L072 VH A60L (antibody, name in Kabat numbering, V domains shown)", "VH": "B1 VH with P60A, A63L", "VL": "B1 VL"}, "B17": {"name": "H183/L072 VH A60M (antibody, name in Kabat numbering, V domains shown)", "VH": "B1 VH with P60A, A63M", "VL": "B1 VL"}, "B18": {"name": "H183/L072 VH A60N (antibody, name in Kabat numbering, V domains shown)", "VH": "B1 VH with P60A, A63N", "VL": "B1 VL"}, "B19": {"name": "H183/L072 VH A60P (antibody, name in Kabat numbering, V domains shown)", "VH": "B1 VH with P60A, A63P", "VL": "B1 VL"}, "B20": {"name": "H183/L072 VH A60Q (antibody, name in Kabat numbering, V domains shown)", "VH": "B1 VH with P60A, A63Q", "VL": "B1 VL"}, "B21": {"name": "H183/L072 VH A60R (antibody, name in Kabat numbering, V domains shown)", "VH": "B1 VH with P60A, A63R", "VL": "B1 VL"}, "B22": {"name": "H183/L072 VH A60S (antibody, name in Kabat numbering, V domains shown)", "VH": "B1 VH with P60A, A63S", "VL": "B1 VL"}, "B23": {"name": "H183/L072 VH A60T (antibody, name in Kabat numbering, V domains shown)", "VH": "B1 VH with P60A, A63T", "VL": "B1 VL"}, "B24": {"name": "H183/L072 VH A60V (antibody, name in Kabat numbering, V domains shown)", "VH": "B1 VH with P60A, A63V", "VL": "B1 VL"}, "B25": {"name": "H183/L072 VH A60W (antibody, name in Kabat numbering, V domains shown)", "VH": "B1 VH with P60A, A63W", "VL": "B1 VL"}, "B26": {"name": "H183/L072 VH A60Y (antibody, name in Kabat numbering, V domains shown)", "VH": "B1 VH with P60A, A63Y", "VL": "B1 VL"}, "B27": {"name": "H183/L072 VH A98I (antibody, name in Kabat numbering, V domains shown)", "VH": "B1 VH with P60A, A104I", "VL": "B1 VL"}, "B28": {"name": "H183/L072 VH A98L (antibody, name in Kabat numbering, V domains shown)", "VH": "B1 VH with P60A, A104L", "VL": "B1 VL"}, "B29": {"name": "H183/L072 VH A98M (antibody, name in Kabat numbering, V domains shown)", "VH": "B1 VH with P60A, A104M", "VL": "B1 VL"}, "B30": {"name": "H183/L072 VH A98P (antibody, name in Kabat numbering, V domains shown)", "VH": "B1 VH with P60A, A104P", "VL": "B1 VL"}, "B31": {"name": "H183/L072 VH A100I (antibody, name in Kabat numbering, V domains shown)", "VH": "B1 VH with P60A, A106I", "VL": "B1 VL"}, "B32": {"name": "H183/L072 VH A100L (antibody, name in Kabat numbering, V domains shown)", "VH": "B1 VH with P60A, A106L", "VL": "B1 VL"}, "B33": {"name": "H183/L072 VH A100M (antibody, name in Kabat numbering, V domains shown)", "VH": "B1 VH with P60A, A106M", "VL": "B1 VL"}, "B34": {"name": "H183/L072 VH A100P (antibody, name in Kabat numbering, V domains shown)", "VH": "B1 VH with P60A, A106P", "VL": "B1 VL"}, "B35": {"name": "H183/L072 VH A100fI (antibody, name in Kabat numbering, V domains shown)", "VH": "B1 VH with P60A, A112I", "VL": "B1 VL"}, "B36": {"name": "H183/L072 VH A100fL (antibody, name in Kabat numbering, V domains shown)", "VH": "B1 VH with P60A, A112L", "VL": "B1 VL"}, "B37": {"name": "H183/L072 VH A100fM (antibody, name in Kabat numbering, V domains shown)", "VH": "B1 VH with P60A, A112M", "VL": "B1 VL"}, "B38": {"name": "H183/L072 VH A100fP (antibody, name in Kabat numbering, V domains shown)", "VH": "B1 VH with P60A, A112P", "VL": "B1 VL"}, "B39": {"name": "H183/L072 VH A102I (antibody, name in Kabat numbering, V domains shown)", "VH": "B1 VH with P60A, A117I", "VL": "B1 VL"}, "B40": {"name": "H183/L072 VH A102L (antibody, name in Kabat numbering, V domains shown)", "VH": "B1 VH with P60A, A117L", "VL": "B1 VL"}, "B41": {"name": "H183/L072 VH A102M (antibody, name in Kabat numbering, V domains shown)", "VH": "B1 VH with P60A, A117M", "VL": "B1 VL"}, "B42": {"name": "H183/L072 VH A102P (antibody, name in Kabat numbering, V domains shown)", "VH": "B1 VH with P60A, A117P", "VL": "B1 VL"}, "B43": {"name": "H183/L072 VH D52aA (antibody, name in Kabat numbering, V domains shown)", "VH": "B1 VH with D53A, P60A", "VL": "B1 VL"}, "B44": {"name": "H183/L072 VH D52aE (antibody, name in Kabat numbering, V domains shown)", "VH": "B1 VH with D53E, P60A", "VL": "B1 VL"}, "B45": {"name": "H183/L072 VH D52aF (antibody, name in Kabat numbering, V domains shown)", "VH": "B1 VH with D53F, P60A", "VL": "B1 VL"}}, "note": "Substitutions are numbered along the chain they refer to. Numbers in names are those of the source.", "data": [{"target": "T1, Human CD3eg linker (human)", "T1 construct": "Single chain: epsilon and gamma subunits of human CD3 joined by a 29-mer linker, Flag-tag at the C-terminus; also called recombinant human CD3", "T1 chain": "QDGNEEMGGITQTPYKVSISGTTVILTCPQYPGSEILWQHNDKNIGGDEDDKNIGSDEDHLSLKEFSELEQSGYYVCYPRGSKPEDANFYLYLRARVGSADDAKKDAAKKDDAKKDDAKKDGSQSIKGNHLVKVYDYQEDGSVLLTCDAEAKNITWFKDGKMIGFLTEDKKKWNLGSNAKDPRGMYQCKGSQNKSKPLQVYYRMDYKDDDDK", "experiment": "Biacore SPR, vs template H183/L072", "units": {"fold change of affinity": "fold"}, "values": [{"binder": "B1", "fold change of affinity": 0.9}, {"binder": "B2", "fold change of affinity": 1.1}, {"binder": "B3", "fold change of affinity": 1.3}, {"binder": "B4", "fold change of affinity": 1.1}, {"binder": "B5", "fold change of affinity": 1.3}, {"binder": "B6", "fold change of affinity": 0.9}, {"binder": "B7", "fold change of affinity": 0.4}, {"binder": "B8", "fold change of affinity": 0.4}, {"binder": "B9", "fold change of affinity": 1.3}, {"binder": "B10", "fold change of affinity": 1.1}, {"binder": "B11", "fold change of affinity": 0.7}, {"binder": "B12", "fold change of affinity": 1.9}, {"binder": "B13", "fold change of affinity": 1.1}, {"binder": "B14", "fold change of affinity": 0.6}, {"binder": "B15", "fold change of affinity": 0.9}, {"binder": "B16", "fold change of affinity": 1.2}, {"binder": "B17", "fold change of affinity": 1}, {"binder": "B18", "fold change of affinity": 1}, {"binder": "B19", "fold change of affinity": 0.5}, {"binder": "B20", "fold change of affinity": 1.1}, {"binder": "B21", "fold change of affinity": 1}, {"binder": "B22", "fold change of affinity": 1.3}, {"binder": "B23", "fold change of affinity": 0.9}, {"binder": "B24", "fold change of affinity": 1}, {"binder": "B25", "fold change of affinity": 1}, {"binder": "B26", "fold change of affinity": 0.7}, {"binder": "B27", "fold change of affinity": 4.6}, {"binder": "B28", "fold change of affinity": 3.7}, {"binder": "B29", "fold change of affinity": 1}, {"binder": "B30", "fold change of affinity": 0.2}, {"binder": "B31", "fold change of affinity": 1.4}, {"binder": "B32", "fold change of affinity": 1.2}, {"binder": "B33", "fold change of affinity": 1}, {"binder": "B34", "fold change of affinity": 1.3}, {"binder": "B35", "fold change of affinity": 1}, {"binder": "B36", "fold change of affinity": 1.2}, {"binder": "B37", "fold change of affinity": 1.3}, {"binder": "B38", "fold change of affinity": 0.6}, {"binder": "B39", "fold change of affinity": 0.9}, {"binder": "B40", "fold change of affinity": 0.7}, {"binder": "B41", "fold change of affinity": 1}, {"binder": "B42", "fold change of affinity": 0}, {"binder": "B43", "fold change of affinity": 0}, {"binder": "B44", "fold change of affinity": 0}, {"binder": "B45", "fold change of affinity": 0}]}]}
